This note sets out measurements from patent US20240190987A1, “Engineered EpCam Binding Antibodies” (TigaTX, priority 2021, published 2024).

One assay has as its target Ab0223. The assay is described as follows: BLI 1-pt +indinavir.
Assay [1] deals with cyEpCAM ECD Ag0066 (cyno). Description: SPR single-cycle.
The target of assay [2] is cyEpCAM ECD Ag0066 (cyno). Description: SPR multi-cycle.
Assay [3] addresses T1, huEpCAM ECD Ag0065 (human) (UniProt P16422).
T1 sequence: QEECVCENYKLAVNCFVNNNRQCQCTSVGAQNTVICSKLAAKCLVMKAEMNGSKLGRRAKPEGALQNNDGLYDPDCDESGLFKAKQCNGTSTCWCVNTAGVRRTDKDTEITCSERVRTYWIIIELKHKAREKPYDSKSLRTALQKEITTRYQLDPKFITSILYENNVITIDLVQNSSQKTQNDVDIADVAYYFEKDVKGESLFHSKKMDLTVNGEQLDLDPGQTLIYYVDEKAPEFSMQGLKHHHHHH
Description: SPR multi-cycle.

Assay [4] addresses T1, huEpCAM ECD Ag0065 (human). Description: SPR single-cycle.

A value given as a limit tells only on which side of the number the result lay.

Chain of Ab0223 (VH, as listed by the source limits assumed, form in doubt, chain 1 of 2): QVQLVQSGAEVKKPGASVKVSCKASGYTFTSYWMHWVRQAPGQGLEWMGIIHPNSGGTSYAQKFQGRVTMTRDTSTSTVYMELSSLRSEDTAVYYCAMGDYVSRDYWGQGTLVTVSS
Chain of Ab0223 (VL, as listed by the source limits assumed, form in doubt, chain 2 of 2): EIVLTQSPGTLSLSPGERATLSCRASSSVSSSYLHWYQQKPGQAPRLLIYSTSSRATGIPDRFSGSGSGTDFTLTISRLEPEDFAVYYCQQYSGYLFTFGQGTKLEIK

B1: Ab0935 (antibody, V domains shown)
VH: EVQLVESGGGLVQPGGSLRLSCAASGFDFSSASIHWVRQAPGKGLEWVASISPYYGSTYYADSVKGRFTISADTSKNTAYLQMNSLRAEDTAVYYCARYYEWYKYDLYLGSLGFDYWGQGTLVTVSS
VL: DIQMTQSPSSLSASVGDRVTITCRASQSVSSAVAWYQQKPGKAPKLLIYSASSLYSGVPSRFSGSRSGTDFTLTISSLQPEDFATYYCQQGGYSLITFGQGTKVEIK
Broadly, the Kd is the equilibrium constant for the complex coming apart. Lower therefore signals a tighter complex. Turning to B1, the Kd in the assay with Ab0223 worked out at 230 nM.

B2: Ab0942 (antibody, V domains shown)
VH: EVQLVESGGGLVQPGGSLRLSCAASGFDFSSYSIHWVRQAPGKGLEWVASISPYYGSTYYADSVKGRFTISADTSKNTAYLQMNSLRAEDTAVYYCARYYAWYKYDLYLGSLGFDYWGQGTLVTVSS
VL: DIQMTQSPSSLSASVGDRVTITCRASQSVSSAVAWYQQKPGKAPKLLIYSASSLYSGVPSRFSGSRSGTDFTLTISSLQPEDFATYYCQQGGYSLITFGQGTKVEIK
In the assay with Ab0223, B2 registered a dissociation constant Kd of 210 nM.

B3: Ab0943 (antibody, V domains shown)
VH: EVQLVESGGGLVQPGGSLRLSCAASGFDFSSYSIHWVRQAPGKGLEWVASISPYYGSTYYADSVKGRFTISADTSKNTAYLQMNSLRAEDTAVYYCARYYEWYAYDLYLGSLGFDYWGQGTLVTVSS
VL: DIQMTQSPSSLSASVGDRVTITCRASQSVSSAVAWYQQKPGKAPKLLIYSASSLYSGVPSRFSGSRSGTDFTLTISSLQPEDFATYYCQQGGYSLITFGQGTKVEIK
Turning to B3, the dissociation constant (Kd) with Ab0223 was 130 nM.

B4: Ab0944 (antibody, V domains shown)
VH: EVQLVESGGGLVQPGGSLRLSCAASGFDFSSYSIHWVRQAPGKGLEWVASISPYYGSTYYADSVKGRFTISADTSKNTAYLQMNSLRAEDTAVYYCARYYEWYKYALYLGSLGFDYWGQGTLVTVSS
VL: DIQMTQSPSSLSASVGDRVTITCRASQSVSSAVAWYQQKPGKAPKLLIYSASSLYSGVPSRFSGSRSGTDFTLTISSLQPEDFATYYCQQGGYSLITFGQGTKVEIK
In the assay with Ab0223, B4 returned a Kd of 7.1 nM.

B5: Ab0936 (antibody, V domains shown)
VH: EVQLVESGGGLVQPGGSLRLSCAASGFDFSSYSIHWVRQAPGKGLEWVAAISPYYGSTYYADSVKGRFTISADTSKNTAYLQMNSLRAEDTAVYYCARYYEWYKYDLYLGSLGFDYWGQGTLVTVSS
VL: DIQMTQSPSSLSASVGDRVTITCRASQSVSSAVAWYQQKPGKAPKLLIYSASSLYSGVPSRFSGSRSGTDFTLTISSLQPEDFATYYCQQGGYSLITFGQGTKVEIK
B5 yielded a dissociation constant (Kd) with Ab0223 of less than 1 nM.

B6: Ab0941 (antibody, V domains shown)
VH: EVQLVESGGGLVQPGGSLRLSCAASGFDFSSYSIHWVRQAPGKGLEWVASISPYYGATYYADSVKGRFTISADTSKNTAYLQMNSLRAEDTAVYYCARYYEWYKYDLYLGSLGFDYWGQGTLVTVSS
VL: DIQMTQSPSSLSASVGDRVTITCRASQSVSSAVAWYQQKPGKAPKLLIYSASSLYSGVPSRFSGSRSGTDFTLTISSLQPEDFATYYCQQGGYSLITFGQGTKVEIK
Take B6: the equilibrium dissociation constant (Kd) with Ab0223 was found to be 3.7 nM.

B7: Ab0947 (antibody, V domains shown)
VH: EVQLVESGGGLVQPGGSLRLSCAASGFDFSSYSIHWVRQAPGKGLEWVASISPYYGSTYYADSVKGRFTISADTSKNTAYLQMNSLRAEDTAVYYCARYYEWYKYDLYLGSLGFAYWGQGTLVTVSS
VL: DIQMTQSPSSLSASVGDRVTITCRASQSVSSAVAWYQQKPGKAPKLLIYSASSLYSGVPSRFSGSRSGTDFTLTISSLQPEDFATYYCQQGGYSLITFGQGTKVEIK
Molecule B7 returned a Kd with Ab0223 of 52 nM.

B8: Ab0939 (antibody, V domains shown)
VH: EVQLVESGGGLVQPGGSLRLSCAASGFDFSSYSIHWVRQAPGKGLEWVASISAYYGSTYYADSVKGRFTISADTSKNTAYLQMNSLRAEDTAVYYCARYYEWYKYDLYLGSLGFDYWGQGTLVTVSS
VL: DIQMTQSPSSLSASVGDRVTITCRASQSVSSAVAWYQQKPGKAPKLLIYSASSLYSGVPSRFSGSRSGTDFTLTISSLQPEDFATYYCQQGGYSLITFGQGTKVEIK
Turning to B8, the Kd in the assay with Ab0223 came to 3.7 nM.

B9: Ab0946 (antibody, V domains shown)
VH: EVQLVESGGGLVQPGGSLRLSCAASGFDFSSYSIHWVRQAPGKGLEWVASISPYYGSTYYADSVKGRFTISADTSKNTAYLQMNSLRAEDTAVYYCARYYEWYKYDLYLGSLAFDYWGQGTLVTVSS
VL: DIQMTQSPSSLSASVGDRVTITCRASQSVSSAVAWYQQKPGKAPKLLIYSASSLYSGVPSRFSGSRSGTDFTLTISSLQPEDFATYYCQQGGYSLITFGQGTKVEIK
In the assay with Ab0223, B9 had a Kd of 50 nM.

B10: Ab0948 (antibody, V domains shown)
VH: EVQLVESGGGLVQPGGSLRLSCAASGFDFSSYSIHWVRQAPGKGLEWVASISPYYGSTYYADSVKGRFTISADTSKNTAYLQMNSLRAEDTAVYYCARYYEWYKYDLYLGSLGFDAWGQGTLVTVSS
VL: DIQMTQSPSSLSASVGDRVTITCRASQSVSSAVAWYQQKPGKAPKLLIYSASSLYSGVPSRFSGSRSGTDFTLTISSLQPEDFATYYCQQGGYSLITFGQGTKVEIK
Consider B10, for which, in the assay with Ab0223, the Kd was determined as 7.3 nM.

B11: Ab0938 (antibody, V domains shown)
VH: EVQLVESGGGLVQPGGSLRLSCAASGFDFSSYSIHWVRQAPGKGLEWVASIAPYYGSTYYADSVKGRFTISADTSKNTAYLQMNSLRAEDTAVYYCARYYEWYKYDLYLGSLGFDYWGQGTLVTVSS
VL: DIQMTQSPSSLSASVGDRVTITCRASQSVSSAVAWYQQKPGKAPKLLIYSASSLYSGVPSRFSGSRSGTDFTLTISSLQPEDFATYYCQQGGYSLITFGQGTKVEIK
B11: the Kd with Ab0223 came out at 310 nM.

B12: Ab0940 (antibody, V domains shown)
VH: EVQLVESGGGLVQPGGSLRLSCAASGFDFSSYSIHWVRQAPGKGLEWVASISPYYASTYYADSVKGRFTISADTSKNTAYLQMNSLRAEDTAVYYCARYYEWYKYDLYLGSLGFDYWGQGTLVTVSS
VL: DIQMTQSPSSLSASVGDRVTITCRASQSVSSAVAWYQQKPGKAPKLLIYSASSLYSGVPSRFSGSRSGTDFTLTISSLQPEDFATYYCQQGGYSLITFGQGTKVEIK
As for B12, the Kd with Ab0223 was determined as 10 nM.

B13: Ab1011 (antibody, V domains shown)
VH: EVQLVESGGGLVQPGGSLRLSCAASGFTFSNYWMNWVRQAPGKGLEWVAQIRVKSENFATHYADSVKGRFTISRDDSKSTVYLQMNSLRAEDTAVYYCTRYDGFSWGQGTLVTVSS
VL: DIQMTQSPSSLSASVGDRVTITCSASSSVSSGNFHWYQQKPGKAPKLLIYRTSNLASGVPSRFSGSGSGTDYTLTISSLQPEDFATYYCQQWSGYPYTFGQGTKVEIKR
On to B13, for which the dissociation constant (Kd) in assay [1] was determined as 9.9 nM.

B14: Ab1066 (antibody, V domains shown)
VH: EVQLVESGGGLVQPGGSLRLSCAASGFTFSNYWMNWVRQAPGKGLEWVAQIRVKSENFATHYADSVKGRFTISRDDSKSTVYLQMNSLRAEDTAVYYCTLYDAFSWGQGTLVTVSS
VL: DIQMTQSPSSLSASVGDRVTITCSASSSVSSGNFHWYQQKPGKAPKLLIYRTSNLASGVPSRFSGSGSGTDYTLTISSLQPEDFATYYCQQASGYPYTFGQGTKVEIK
Consider B14, for which the figures for the Kd in assay [2] and in assay [3] were 3 nM and 5.7 nM, respectively.

B15: Ab1012 (antibody, V domains shown)
VH: EVQLVESGGGLVQPGGSLRLSCAASGFTFSSYWMNWVRQAPGKGLEWVAQIRVKSENFATHYADSVKGRFTISRDDSKSTVYLQMNSLRAEDTAVYYCTLYDGFSWGQGTLVTVSS
VL: DIQMTQSPSSLSASVGDRVTITCSASSSVSSGNFHWYQQKPGKAPKLLIYRTSNLASGVPSRFSGSGSGTDYTLTISSLQPEDFATYYCQQWSGYPYTFGQGTKVEIK
In the case of B15, the Kd in assay [1] stood at 6.2 nM; in assay [4], 9.7 nM.

B16: Ab1023 (antibody, V domains shown)
VH: EVQLVESGGGLVQPGGSLRLSCAASGFTFSNYWMNWVRQAPGKGLEWVAQIRVKYENFATHYADSVKGRFTISRDDSKSTVYLQMNSLRAEDTAVYYCTLYDGFSWGQGTLVTVSS
VL: DIQMTQSPSSLSASVGDRVTITCSASSSVSSGNFHWYQQKPGKAPKLLIYRTSNLASGVPSRFSGSGSGTDYTLTISSLQPEDFATYYCQQWSGYPYTFGQGTKVEIK
Turning to B16, the figures for the Kd in assay [1] and in assay [4] were 0.9 nM and 2 nM, respectively.

B17: Ab1017 (antibody, V domains shown)
VH: EVQLVESGGGLVQPGGSLRLSCAASGFTFSNYWMSWVRQAPGKGLEWVAQIRVKSENFATHYADSVKGRFTISRDDSKSTVYLQMNSLRAEDTAVYYCTLYDGFSWGQGTLVTVSS
VL: DIQMTQSPSSLSASVGDRVTITCSASSSVSSGNFHWYQQKPGKAPKLLIYRTSNLASGVPSRFSGSGSGTDYTLTISSLQPEDFATYYCQQWSGYPYTFGQGTKVEIK
Regarding B17, the results for the Kd in assay [1] and in assay [4] were 4.5 nM and 7.6 nM, respectively.

B18: Ab1021 (antibody, V domains shown)
VH: EVQLVESGGGLVQPGGSLRLSCAASGFTFSNYWMNWVRQSPGKGLEWVAQIRVKSENFATHYADSVKGRFTISRDDSKSTVYLQMNSLRAEDTAVYYCTLYDGFSWGQGTLVTVSS
VL: DIQMTQSPSSLSASVGDRVTITCSASSSVSSGNFHWYQQKPGKAPKLLIYRTSNLASGVPSRFSGSGSGTDYTLTISSLQPEDFATYYCQQWSGYPYTFGQGTKVEIK
For the molecule B18, the dissociation constant Kd in assay [1] worked out at 2.3 nM; in assay [4], 3.1 nM.

B19: Ab1016 (antibody, V domains shown)
VH: EVQLVESGGGLVQPGGSLRLSCAASGFTFSNYYMNWVRQAPGKGLEWVAQIRVKSENFATHYADSVKGRFTISRDDSKSTVYLQMNSLRAEDTAVYYCTLYDGFSWGQGTLVTVSS
VL: DIQMTQSPSSLSASVGDRVTITCSASSSVSSGNFHWYQQKPGKAPKLLIYRTSNLASGVPSRFSGSGSGTDYTLTISSLQPEDFATYYCQQWSGYPYTFGQGTKVEIK
In the case of B19, the Kd in assay [1] was determined as 7.7 nM; in assay [4], 7.2 nM.
